In the DeepSol protein solubility set:

Assay: soluble on expression in E. coli; label from the status in PepcDB or PDB records

Soluble on expression in E. coli, not soluble:
MGSDKIHHHHHHMAELNKTKVRKELRTERPSIYSFELDEIKQWLTDNGEKPFRAAQIFEWLYEKRVSSFEDMTNLSKDLREKLNTRFVLTTLKTAVKQTSQDGTMKFLFELHDGYTIETVLMRHEYGNSVCVTTQVGCRIGCTFCASTLGGLKRNLEAGEIVAQVVKVQKALDETDERVSSVVIMGIGEPFDNFNEMLAFLKIINHDKGLNIGARHITVSTSGIIPKIYEFADQQMQINFAISLHAPNTEIRSRLMPINRAYKLPDLMEAVKYYINKTGRRISFEYGLFGGVNDQVEHAEELADLLEGVKCHVNLIPVNYVPERDYVRTPRDQIFAFEKTLKSRGVNVTIRREQGHDIDAACGQLRAKERQDETR
MGSDKIHHHHHHMAENWKNCFEEELICPICLHVFVEPVQLPCKHNFCRGCIGEAWAKDSGLVRCPECNQAYNQKPGLEKNLKLTNIVEKFNALHVEKPPAALHCVFCRRGPPLPAQKVCLRCEAPCCQSHVQTHLQQPSTARGHLLVEADDVRAWSCPQHNAYRLYHCEAEQVAVCQYCCYYSGAHQGHSVCDVEIRRNEIRKMLMKQQDRLEEREQDIEDQLYKLESDKRLVEEKVNQLKEEVRLQYEKLHQLLDEDLRQTVEVLDKAQAKFCSENAAQALHLGERMQEAKKLLGSLQLLFDKTEDVSFMKNTKSVKILMDRTQTCTSSSLSPTKIGHLNSKLFLNEVAKKEKQLRKMLEGPFSTPVPFLQSVPLYPCGVSSSGAEKRKHSTAFPEASFLETSSGPVGGQYGAAGTASGEGQSGQPLGPCSSTQHLVALPGGAQPVHSSPVFPPSQYPNGSAAQQPMLPQYGGRKILVCSVDNCYCSSVANHGGHQPYPRSGHFPWTVPSQEYSHPLPPTPSVPQSLPSLAVRDWLDASQQPGHQDFYRVYGQPSTKHYVTS
MGSDKIHHHHHHMAFNIDGSGNKSGVRSNMLSENNILKYGSNFSKANASSLNNKINSLNYTVEYINNELMGIFFRQGLKFGIFKAVEDFRPTISELITILGYPNEEFVEKYIKTAVSLNLLNLNEEERLELNSDFIYSSIHPEYDKIISDHVSRYDFMSGLVQYAFIGYDHPEILLNFKKDADIWDMMLNTKYMKTCREVISEYLDIKNGDTILEVGCGSRSPLYFASKVAPNGEYVGVDISKKLIRVAQGRLKRSGIECAKLKALDFSETIAKNKHDYVLCIHTLSYADSLKLFLKKMMGSLRKGGKLVIMEEFFTENINTNAELFEFYNHLNKYFKNYVSKTEILKELELIGIDYKYELLGDNCIVVERI
MGSDKIHHHHHHMAGTCGLTLGKYAPLHKGHQLVIETALAEMDEVLVMIYECPEVTAIPLTVRANWLRKIYPQILVIEAWDGPTEVGDTSEIKKMHEDYILKQLESKKITHFYCSEFYGEHVSQALGAVNRLVDCDRKTFPISGTQVRTDTYAMREYLHPDVYRDLIANIVFLGAPSTGKTTIASQLAKEYNTVWMPEYGREYWEKNQINRRLSLLQLVEIAKGHLEREEALLLQANQYLFTDTNALTTYQFSLYYHKTVAPELVQLAHQAMSRYDLVFLCDLDIPYDDTWDRSGEANRSIFQKQIESDLIVRKIPFFRLSGDLMTRISIVKKVLYYYQKYASLGELFFNKLIL
MGSDKIHHHHHHMAGVSPLSNRWSKQVLSNFEQAASTYNSQAQLQRAVAWRLARQCARQHIPAGFWVDLGSGTGLMADALEACNPHQAVLRVDGCHEMLKHHHHSSQTLLWDLNLGVPSWPQLPSLLASSFALHWLINPLERLHEWMAALTPEGWLALALPVEGSFPQWHQAAATAGVSCTALPFPSQASLLDVLSSNNIRHQQLHQFTQQSPEVFQLLKPMRQIGAQASPCSTMGVGNWRHLKQAWPRCQNSGDAQLTWLIQLLLIQR
MGSDKIHHHHHHMAHHAAPPINTTKFPIDRWWVAALSSELTDKPVARTLLGRPVVLFRLPSGEVGALEDRCCHKSLPLSCGSLEVRGLRCGYHGLLFDRDGACVEIPGQDRIPAKACVASYPVREQDAIVWIWIGAEAHAEPTCAPPRYPFHSDPQYRFGGGHYHYDAPYQLIHDNLMDLSHLGYVHLKTIGGNASLHMGAETRVSTDGDTVTLVRRMPDSEPPPTYTAAWPFAGRVDRWQEIEFHVSHIRIWTGAMDAGTGDLHDPARGGFHMRGFHGITPETETTTHYFWTVATNPQHDIERVARTVIEQSAATFDEDKTVIEAQYRNQLRFPDRRQIDIHVDAGPNRARRVIERLLLQPEPA
MGSDKIHHHHHHMAIACVNTRASCGVEAPKVTVEVHLSNGLPAFNLVGLPEASVKEARERVRSALINAGFEFPMRRITVNLAPADLPKQGGRYDLPIAVGILAASEQIPANSLKNLEFVGELALSGQIRYCQGLLPAIIAAKRQDNTLILPLENRHDAELVGYQKVFFGSHLQSLAAFLQGQAPLPELDTHLEWVSEEQSYDSSQCLSDVIGQYQAKQALEIAAAGNHNLLMLGPPGTGKTMLASRMMALLPALSYEEALEVAAIHSVAGLDIKPQDFLKRPFRAPHHTSSSISLVGGGSIPKPGEISLAHRGVLFLDEVAEFPRKVLDCLREPMETGEVVISRAAAKLTFLSRFQLIAAMNPSPSGDIDANNRATPDQVQRYLARLSGPFLDRFDLTIEVPKLPAGTLTQAMAPSETSQDVAKRVRRARDIQLARSGVLNSELTGKQLKLFSGLTDADLIFLEQSVVKLGLSVRSFHRIQRVARTIADLEQSPNTERRHLAQALGYRAMDRLLARLSQQY
MGSDKIHHHHHHMAIEHYWDQALERSTAAQLNGALVPLSTELTRIRARQGEPFELRKLKGHPPSHLLARGPKPNPFLPWDPSLEVSEIGMRHVLILNKYPVQKGHMLLITREWAPQHGWLSYDDWEALLSVDQDTKGLWFFNSSPTAGASQPHRHLQLLRRCDDDRSCPRQEWFQSLVNSSPRESCQLTQCCAATARAQNHDAQIHYQAYLTLCEKIGLGNPAENQHPRQPYNLLLTKEWMALILRSREGIAGFSINALGFAGYLLATETSDLDWLNHHGPEALLEGVVKTIQ
MGSDKIHHHHHHMAINYGVFTISLDFEMYWGVRDKRAISDYAVNLEGIRPAIAGMLDIFTEFNVHATWATVGFLFFRNSEHLSANLPKAIPTYTDINLSPYEYIKNKKLDDRYHFAPDLIQKIISTSGQEVASHTFSHYYCLEDGQTIDQFESDLALAVDTASRLGYKLSSLVFPRNQWNSEYLSVLNKYNIKSFRGNELNWMNSASGQEGQSYFKRAARLLDSYINISGFNTHDISTCLENKPFNFPSSRFLRPYNKKLSFFDCLKLRRIKKAMTHAAKNNELFHLWWHPHNFGAETSKNLDMLREILDHYQYLNKNFGMRSLNMEELSFLEKAYD
MGSDKIHHHHHHMAITIQNHELQVTLKALGATMTSITDSQGVEYLWQGDATYWGGQAPILFPICGSVRNDCVIYRPAQAPHFTGIIPRHGFVRHKTFDYDYISDSSVRFTIKSSKEMLINYPYRFSLEITYTLRNKSIAITYIVKNLESEKNMPYAIGAHPGFNCPLFEKEVFSDYYLEFEQFETCTIPESFPDTGLLDLQARHPFLENQKQLSLNHALFEKDAITLDQLRSKTVYLKSRNHAKGIQLDFDDFENLILWTSNNGGPFLALEPWSSLSTSIEESDILEDKQNIVRLNPKQSKQHSIRITIL
MGSDKIHHHHHHMAKAKTQFICSNCGYTSARYLGRCPNCGQWNTLIEEKIVPEAVVNRKARISFDGRVAKPKKISEISGNELPRTRTGLRELNRVLGGGIVPGSLILIGGDPGIGKSTLMLQVSGQLAENGGSVLYVSGEESDNQIKLRADRLGVGSDSFIVYPETDMEQIKSIVQQIEPDYLVIDSVQTMQEPDLQSPIGSVAQIREVTANLMQIAKTNAITVFIVGHVTKDGSIAGPKILEHMVDTVLYFEGDANYKYRILRTVKNRFGSTNELGIFEMRDHGLREVANPSEIFLEERLAGATGSAITASMEGSRPILVEVQALVAPTVFGNAQRVTTGVDRNRVSQILAVLEKHANLLLQNQDAHVRITGGVKIDEPAADLAIALAVASSYHEKATNASDVFLGEVGLGGEVRSISLIEDRLKEIAKLGFKRAIVSKNNLAGIDLPKGLQVIGVSTLEEALKLGLDLNRASKQKGFADL
MGSDKIHHHHHHMAKDIIKLGDVATYINGYAFKPEDRGEEGLQIIRIQDLTGNSYDLGFYNGKYPKKIEINDGDVLISWSASLGVYVWNGGKALLNQHIFKVKFDKVDIDKSYFVYAVRYKLNDMGKKTHGATMKHIVKRDFDATEIPYPPLKKQIEIAINLDKVLMVIKERKRELKLLDELIKARFVEMFGDCTNMISLSDLCLIITDGTHQSPKFQHEGIPFILVSNLSKNTVTYDTDKFISAETYKELYKRTPIEIGDILLSTVGSYGHPAVVVEDRKFLFQRHIAYLKPKSDILNSYYMHGALLSPGCQRQIEEKVKGIAQKTLNLSEIRKIRIPVPSLDLQKQYADFVHQVNKSKVAVQKALDETQILFDSLMQKYFG
MGSDKIHHHHHHMAKTNPGRFFEDYTVGQTLHHAVPRTVTNGERALYHALYPARHALYSSDAFAQSCGLPGSPIDDLAAFHVVFGKTVPDVSLNAVANLGYAEGRWLKPVYAGDTLRSVSEVIGLKQNSNGKTGVVYVRTRGLNQRDETVMEYVRWVMVRKRDLDAPAPEIVVPELKKALAPNDLVVPEGLDFTAYDFALAGEPHRWGDYAVGETIDHVDGVTVEEAEHMLATRLWQNTAKVHFDLTFRPDGRLIYGGHVISMARALSFNGLANAQIIVGLNGGAHANPCFAGDTIKAWTEVLDKAETAAPGVGALRLRLVATKGGAPFALHGEDGKYLPEVLLDLDYWVLMPK
MGSDKIHHHHHHMALFESYDRRIDHINAVLNEYGINGIEDAKAICDAKGIDPYTMCKETQPICFENACWAYVVGAAIAIKKGCTNAAEAAEAIGIGLQAFCIAGSVADDRKVGIGHGNLAARLLREETKCFAFLAGHESFAAAEGAIKIAEMANKVRKEPLRVILNGLGKDAAKIISRINGFTYVQTQFDYMTGEVNVIEEKAYSNGLRAKVKCYGADDVREGVAIMRKEGVDVSITGNSTNPTRFQHPVAGTYKKECMENGHPYFSVASGGGTGRTLHPDNMAAGPASYGMTDTMGRMHGDAQFAGSSSVPAHVEMMGFLGMGNNPMVGATVAVAVAIEEAMKK
MGSDKIHHHHHHMALIHEIITSENIKGFYNAKNENVENTLGEKAFPPKQQLGLKLSFIKGAAGKPVTLKAAAFDTKVPLRDRMAVELIDEEMPFFKEAMLVKEADRQQLNMLAQTKNNELIDTILASIYNDQATLIAGAKARLEAMRMEVLSKGKIHIQSNGVMKDIDYGLAEDQTTKPDAKWDSAGTATPLKDIEKAIEKMAERGFVPEAIIMNSKTFSLIKNAESTLDVVKPMAPNGAAVTKRDLNTYLEDELQIKVILKDGMFVGDDGESRKYFPDGFATLVPNGNLGYTVFGTTPEQSDLLGGEATDANVSIVETGIAITTTKTTDPVNVQTKVSMIALPSFERLEEVHIINGLQDA
MGSDKIHHHHHHMAMDRVTKQLTVSKLLSLANFIPKDSQKILFYSTPDVSDNALALFKYISEKTDDYELAWLLNNPNSPSVKTLKEKYPEVKTIYLYSLEGLKELLRSKFVVLTDVLPLTPHRGQKIIQLWHGLPGKKTGYEHPLNVKDLYLYMDKWTTDFVTTSELVVGAFVRQFMINPRKFRILGQPRNDGLFDNLKDAKNILSSILGRDVEDYDHLILYAPTYRYTSYMKDFQASVNVVKTLFHHKFLEFLKEENILLVIKPHKLVADVIKPEIKENSNVILLTDEHLQSRLITINDVMGAFDILITDYSSIFEDYILLERPILFYLPDREALERKSGFLLPYEFFAPGRKPETLEGLIHALKIYMEDPEVDSEWRKTVKNLLYEVGKDNKSSERIYNLIIKQK
